We go through three molecules from patent publication US20230212319A1, “NOVEL ANTIGEN BINDING DOMAINS AND SYNTHETIC ANTIGEN RECEPTORS INCORPORATING THE SAME” (University of Southern California, priority 2020, published 2023).

This experiment relates to RAJI cells. The experiment is described as follows: JNG assay, co-culture with RAJI cells. It counts as cell-based. The conditions noted are these: for NFAT-GFP ASSAY: Raji: JNG cells expressing construct, co-culture with Raji. Here is the method: Cellular supernatant is collected and assayed for the induction of cytokines (e.g., IL2).
JNG (Jurkat cells expressing EGFP under an NFAT promoter) were infected with lentiviral vectors encoding different single chain and multi-chain SARs by spinfection in the presence of 8 µg/ml of Polybrene® (Sigma, Catalog no. H9268). The Jurkat-NFAT-GFP cells are engineered in such a way that the IL-2 promoter, which carries NFAT binding sites, is cloned upstream of the GFP gene. These cells have been used to study signaling via TCR and CAR. The different SARs were stably expressed in Jurkat NFAT-GFP cells by lentiviral mediated gene transfer, followed by selection with puromycin or blasticidin. No drug selection was used in case the construct lacked an antibiotic resistance gene. The SAR-expressing Jurkat-NFAT-GFP cells were cocultured with the target cells at E:T ratio of approximately 1:2 for approximately 4 hours to 18 hours. When the interaction between SIRs and their target antigen results in activation of the NFAT pathway, GFP expression is induced. […] GFP expression was monitored by FACS analysis. The Jurkat-NFAT-GFP (parental) cells were used as control. The structure of different constructs can be determined based on their names. […] The sequence of the other constructs in the table can be similarly determined from their names and by referring to the different Tables of this disclosure that provide the names and SEQ ID NO of the different modules. Alternatively, the composition and modular architecture of the different SAR constructs can be determined from their sequences by bioinformatics tools, including using nucleic acid and amino acids homology searches. A SAR is considered positive in the assay in case the SAR expressing Jurkat-NFAT-GFP cells show greater % GFP positive cells when cultured with the target cell line as compared to parental Jurkat-NFAT-GFP cells. […] In general, the number +/-, +, 2+, 3+, 4+, 5+ refer to approximately 5%, 10%, 20%, 30%, 40% and 50% GFP positive cells. The % of GFP induction in the above assay is dependent not only the relative strength of the SAR but also, among other factors, on the relative level of expression of the SAR in the JNG cells and the relative level of expression of the target antigen in the target cell line. To control for the difference in gene transduction efficiency of the different SAR constructs, the experiment was conducted with JNG cells transduced with SAR constructs co-expressing a drug resistance gene (e.g., puromycin or PAC) followed by drug selection to generate a stable population of SAR-expressing cells. It is to be noted that the drug resistance gene (e.g., PAC) in the SAR constructs is optional and in vivo studies were conducted with SAR constructs lacking the PAC gene.

B1: 22085 (protein)
chain: MALPVTALLLPLALLLHAARPQLQLQESGPGLVKPSETLSLTCTVSGDSISSGDYYWGWIRQPPGKGLEWIGHIYYSGVTYYNPSLKSRVTISVDTSRNQFSLKLSSVTAADTAVYYCTREDSSNWRSRGQGTLVTVSSLEGSGGGGSGGGGSGEDLKNVFPPEVAVFEPSEAEISHTQKATLVCLATGFYPDHVELSWWVNGKEVHSGVCTDPQPLKEQPALNDSRYCLSSRLRVSATFWQNPRNHFRCQVQFYGLSENDEWTQDRAKPVTQIVSAEAWGRADCGFTSESYQQGVLSATILYEILLGKATLYAVLVSALVLMAMVKRKDSRGRAKRSGSGATNFSLLKQAGDVEENPGPTSMDWIWRILFLVGAATGAHSFEVQLLESGGGLIQPGGSLRLSCAASGFTFSSHAMTWVRQAPGKGLEWVSAISGSGDYTHYADSVKGRFTISRDNSKNTVYLQMNSLRAEDSAVYYCAKDEDGGSLLGHRGQGTLVTVSSTRGSIPEDTFFPSPESSCDVKLVEKSFETDTNLNFQNLSVIGFRILLLKVAGFNLLMTLRLWSS
Take B1: the “NFAT-GFP ASSAY: Raji” value was “+/- (refer to approximately 5%, 10%, 20%, 30%, 40% and 50% GFP positive cells)”.

B2: SEQ ID NO: 22254: bispecific SAR on CD19 targeted SIR backbone comprising the receptor binding domain of the ligand APRIL (protein)
chain: MALPVTALLLPLALLLHAARPACVLHLVPINATSKDDSDVTEVMWQPALRRGRGLQAQGYGVRIQDAGVYLLYSQVLFQDVTFTMGQVVSREGQGRQETLFRCIRSMPSHPDRAYNSCYSAGVFHLHQGDILSVIIPRARAKLNLSPHGTFLGFVKLGTGGGGSGGGGSGGGGSEFDIQMTQSPSSLSASVGDRVTITCKASDHINNWLAWYQQKPGQAPKLLIYGATTLETGVPSRFSGSGSGTDYTLTISSLQPEDFATYYCQQSWNTPWTFGQGTKLEIKRLEDLKNVFPPEVAVFEPSEAEISHTQKATLVCLATGFYPDHVELSWWVNGKEVHSGVCTDPQPLKEQPALNDSRYCLSSRLRVSATFWQNPRNHFRCQVQFYGLSENDEWTQDRAKPVTQIVSAEAWGRADCGFTSESYQQGVLSATILYEILLGKATLYAVLVSALVLMAMVKRKDSRGRAKRSGSGATNFSLLKQAGDVEENPGPTSATMDWIWRILFLVGAATGAHSGPEVQLVESGGGLVQAGGSLRLSCAASGRTFSMGWFRQAPGKEREFVAAITYSGGSPYYADSVKGRFTISRDNAKNTVYLQMNSLKPEDTAVYYCAANPTYGSDWNAENWGQGTQVTVSSGSGGGGSGGGGSGGGGSFEQVQLQQPGAELVKPGASVKMSCKASGYAFSSYWINWMKQKPGQGLEWIGQIYPGDGDTNYNGKFKGRATLTADTSSSTAYMQLSSLTSEDSAVYFCARSITTVVGCAMDYWGQGTSVTVSSTRIQNPDPAVYQLRDSKSSDKSVCLFTDFDSQTNVSQSKDSDVYITDKCVLDMRSMDFKSNSAVAWSNKSDFACANAFNNSIIPEDTFFPSPESSCDVKLVEKSFETDTNLNFQNLSVIGFRILLLKVAGFNLLMTLRLWSSRAKRSGSGVKQTLNFDLLKLAGDVESNPGPSRGHMTEYKPTVRLATRDDVPRAVRTLAAAFADYPATRHTVDPDRHIERVTELQELFLTRVGLDIGKVWVADDGAAVAVWTTPESVEAGAVFAEIGPRMAELSGSRLAAQQQMEGLLAPHRPKEPAWFLATVGVSPDHQGKGLGSAVVLPGVEAAERAGVPAFLETSAPRNLPFYERLGFTVTADVEVPEGPRTWCMTRKPGA
Regarding B2, the “GFP induction / activity” value (co-culture with RAJI cells) is given as “retained the ability to respond”.

B3: 22084 (protein)
chain: MALPVTALLLPLALLLHAARPQLQLQESGPGLVKPSETLSLTCTVSGDSISSGDYYWGWIRQPPGKGLEWIGHIYYSGVTYYNPSLKSRVTISVDTSRNQFSLKLSSVTAADTAVYYCTREDSSNWRSRGQGTLVTVSSLDSGGGGSFEQLQLQESGPGLVKPSETLSLTCTVSGGSISSGDYYWGWIRQPPGKGLEWIGHIYYSGATYYNPSLKSRVTISVDTSRNQFSLKLSSVTAADTAVYYCTRDDSSNWRSRGQGTLVTVSSTRDKTHTCPPCPAIPEDTFFPSPESSCDVKLVEKSFETDTNLNFQNLSVIGFRILLLKVAGFNLLMTLRLWSS
In the case of B3, the “NFAT-GFP ASSAY: Raji” value was “+/- (refer to approximately 5%, 10%, 20%, 30%, 40% and 50% GFP positive cells)”.
